Measured values as given in US20230250158A1.

Assays:
[1] = target: SARS-CoV-2 Spike S2-hFc (SARS-CoV-2), P0DTC2; test: Octet BLI; Fab as analyte over S2-hFc on AHC sensors; steady-state analysis; conditions: remark: other sources report otherwise
[2] = target: SARS-CoV-2 Spike S2-hFc (SARS-CoV-2), P0DTC2; test: Octet, Fab as analyte over S2-hFc on AHC sensor; conditions: remark: other sources report otherwise

B1: 2-A6 Fab (Fab, V domains shown)
VH: QVTLRESGPALVKPTQTLTLTCTFSGFSLNTRGMSVSWIRQPPGKALEWLALIDWEDDKFYRTSLMTRLTISKDIFKNQVVLTMTNVDPVDTGTYYCARTYSVGVKYFGMDVWGQGTTVTVSS
VL: SSELTQDPAVSVALGQTVRITCQGDSLRNYYASWYRQEPGQAPILLIYGGNYRPSGIPDRFSGSSSGNTASLTITGAQAEDEADYYCNSRDSSGNHVVFGGGTKLTVL
In the case of B1, the Kd [1] is reported as 913 nM and the Kd [2] is reported as 900 nM.
